From PMC5564213

Biological target: methemoglobin (UniProt P69905)
Assay: ELISA

| Substance | percent loss of hemoglobin binding against the untreated sample [%] | EC50 [nM] |
| --- | --- | --- |
| DEPC-treated wild-type ShuA (from UniProt P72412 1-660) (natural protein) | 60 |  |
| DEPC-treated wild-type ShuA further treated with hydroxylamine (from UniProt P72412 1-660) (natural protein) | 40 |  |
| purified ShuA Ala-L11 (non-phage-displayed) (from UniProt P72412 1-660) (natural protein) |  | 530 |
| purified ShuA H86A/H420A (non-phage-displayed) (natural protein) |  | 6900 |
| purified wild-type ShuA (non-phage-displayed) (from UniProt P72412) (natural protein; other documents disagree on this pair) |  | 530 |
